Assays:
[1] = molecular target: Biotinylated C-terminal cysteine-tagged MR1–5-OP-RU (SPR) (human) (UniProt Q95460); assay: SPR
[2] = molecular target: MR1 on untreated C1R.MR1 cells (UniProt Q95460); assay: flow cytometry, TCR tetramer staining on C1R.MR1 cells; conditions: No Ligand
[3] = molecular target: MR1 on C1R.MR1 cells pulsed with Ac-6-FP (UniProt Q95460); assay: as above; conditions: Ac-6-FP (10 µM), pulsed for 5 h
[4] = molecular target: MR1 on C1R.MR1 cells pulsed with 5-OP-RU (UniProt Q95460); assay: as above; conditions: 5-OP-RU (10 µM), pulsed for 5 h
M33-64 TCR tetramer = assay: flow cytometry, TCR tetramer staining on C1R.MR1 mutant cells; conditions: 1 μM 5-OP-RU for 3 h; stained 30 min at room temperature; parent: est. 6400; read off a plot
[5] = molecular target: MAV36 TCR Ser49β alanine mutant on HEK293T cells (human); assay: flow cytometry on cells; PE-labeled MR1–5-OP-RU tetramer (0.5 μg/ml, nonsaturating) staining of HEK293T cells transiently expressing MAV36 TCR or alanine mutants with CD3, 15 min at room temperature; gates normalised for TCR level by anti-Vβ3
[6] = molecular target: MAV36 TCR Gln99β alanine mutant on HEK293T cells (human); assay: as above

| Substance | response (M33-64 TCR tetramer) | other results |
| --- | --- | --- |
| A-F7 TCR (TRAV1-2–TRBV6-1), soluble | – | Kd [1]: 2700 nM |
| M33-64 TCR tetramer Tyr95αAla | – | response [2]: 162 MFI; response [3]: 166 MFI; response [4]: 61300 MFI |
| M33-64 TCR tetramer Tyr95αPhe | – | response [2]: 171 MFI; response [3]: 20900 MFI; response [4]: 140000 MFI |
| MR1 on C1R.MR1 cells pulsed with 5-OP-RU (from UniProt Q95460) E158A | 2800 MFI | – |
| MR1 on C1R.MR1 cells pulsed with 5-OP-RU (from UniProt Q95460) H148A | 4600 MFI | – |
| MR1 on C1R.MR1 cells pulsed with 5-OP-RU (from UniProt Q95460) L65A | 1300 MFI | – |
| MR1 on C1R.MR1 cells pulsed with 5-OP-RU (from UniProt Q95460) L151A | 7000 MFI | – |
| MR1 on C1R.MR1 cells pulsed with 5-OP-RU (from UniProt Q95460) Q141A | 5400 MFI | – |
| MR1 on C1R.MR1 cells pulsed with 5-OP-RU (from UniProt Q95460) R61A | 5000 MFI | – |
| MR1 on C1R.MR1 cells pulsed with 5-OP-RU (from UniProt Q95460) V75A | 6400 MFI | – |
| PE-labeled MR1–5-OP-RU tetramer (from UniProt Q95460 23-341; P61769 21-119) (complex) | – | reduction of tetramer staining against the wildtype TCR [5]: 50%; reduction of tetramer staining against the wildtype TCR [6]: 50% |

Further lines, with some results ahead:

| response (M33-64 TCR tetramer) | Substance | other results |
| --- | --- | --- |
| 6100 MFI | MR1 on C1R.MR1 cells pulsed with 5-OP-RU (from UniProt Q95460) D57A | – |
| 5900 MFI | MR1 on C1R.MR1 cells pulsed with 5-OP-RU (from UniProt Q95460) M72A | – |
| 4000 MFI | MR1 on C1R.MR1 cells pulsed with 5-OP-RU (from UniProt Q95460) N146A | – |
| 1600 MFI | MR1 on C1R.MR1 cells pulsed with 5-OP-RU (from UniProt Q95460) N155A | – |
| 6600 MFI | MR1 on C1R.MR1 cells pulsed with 5-OP-RU (from UniProt Q95460) R79A | – |
| 5700 MFI | MR1 on C1R.MR1 cells pulsed with 5-OP-RU (from UniProt Q95460) R167A | – |
| 5500 MFI | MR1 on C1R.MR1 cells pulsed with 5-OP-RU (from UniProt Q95460) T138A | – |
